Assay results as given in patent US20040248785A1 (UNIVERSITY OF MARYLAND BALTIMORE, published 2004).
Each block holds one binder with its values, some of them ahead of it.

What was measured:
[1] = target: LRP on mouse embryonic fibroblast (MEF) cells (mouse, UniProt Q91ZX7 20-4545); assay: cell-based or functional assay
[2] = target: T1, low density lipoprotein receptor-related protein / alpha2-macroglobulin receptor (LRP), isolated from human … (human, UniProt Q07954 20-4544); assay: homologous displacement of 125I-A2 (5 nM) by unlabeled A2 (0-1750 nM) on immobilized LRP, program Ligand
T1 construct: mature; Native receptor coated on microtiter wells; also called purified LRP; immobilized LRP

[3] = target: T1, low density lipoprotein …; assay: heterologous displacement of 125I-fVIII (1 nM) from LRP-coated wells; isolated A2 domain as competitor
Experimental: (§1) Homologous and heterologous ligand displacement assays were performed as previously described (Williams, S. E., et al., J. Biol. Chem. 267:9035-9040 (1992)). Microtiter wells were coated with purified LRP or BSA (3 μg/ml) in 50 mM Tris, 0.15 M NaCl, pH 8.0, for 16 h and then blocked with 3% BSA in TBS. Coated wells were incubated with ¹²⁵I-A2 or ¹²⁵I-fVIII in 20 mM Tris-buffered saline pH 7.4, containing 5 mM CaCl₂, 0.05% Tween-20 in the presence or absence of unlabeled competitors for 1 h at 37° C. The radioactivity bound to the wells was counted using a γ-counter (Pharmacia). Affinity constants were derived from homologous and heterologous displacement data using the computer program LIGAND (Munson, P T and Rodbard, D. Anal. Biochem. 107:220-239 (1980)).
(§2) In order to localize fVIII region(s) involved in interaction with LRP, binding between ¹²⁵I-fVIII and immobilized LRP was competed by unlabeled fVIII fragments.

[4] = target: T1, low density lipoprotein …; assay: competition assay: peptide 484-509 added with 125I-fVIII (1 nM) to LRP-coated wells; competitor of fVIII for LRP
Experimental: FIGS. 17A-17B. Effect of monoclonal antibodies and synthetic peptides on ¹²⁵fVIII binding to purified LRP. […] Binding of ¹²⁵I-fVIII in the presence antibodies or peptides is expressed as the percentage of its binding, when no competitor was added. The mean and standard deviation of the triplicate measurements are presented.
as §1

[5] = target: T1, low density lipoprotein …; assay: heterologous displacement of 125I-fVIII (1 nM) from LRP-coated wells; HCh as competitor
Experimental: as §1, §2

[6] = target: T1, low density lipoprotein …; assay: solid-phase heterologous ligand displacement: RAP competes with 125I-fVIII (1 nM) for LRP-coated wells, 1 h at 37 C
Experimental: FIGS. 15A-15B. Binding of ¹²⁵I-fVIII to purified LRP by ligand competition assay. ¹²⁵I-fVIII (1 nM) was incubated for 1 h at 37° C. in wells coated with LRP (•) or BSA (∘) in the presence of increasing concentrations of unlabeled competitors, fVIII (•, ∘) or vWf (Δ) (FIG. 15A) and RAP (•, ∘) (FIG. 15B). In the experiment (Δ), ¹²⁵I-fVIII was preincubated with vWf for 30 min at 37° C., prior to its addition to the wells. Following incubation, the wells were washed and ¹²⁵I-fVIII binding was determined. Binding of ¹²⁵I-fVIII in the presence of unlabeled fVIII, vWf, or RAP is expressed as the percentage of ¹²⁵fVIII binding, when no competitor was added. Each point represents the mean value of triplicates and the error bars display the standard deviation. The curves show a best fit of the data to a model describing heterologous ligand displacement from a single class of binding sites using the program LIGAND.
Homologous and heterologous ligand displacement assays were performed as previously described (Williams, S. E., et al., J. Biol. Chem. 267:9035-9040 (1992)). Microtiter wells were coated with purified LRP or BSA (3 μg/ml) in 50 mM Tris, 0.15 M NaCl, pH 8.0, for 16 h and then blocked with 3% BSA in TBS. […] The radioactivity bound to the wells was counted using a γ-counter (Pharmacia). […]

[7] = target: T1, low density lipoprotein …; assay: RAP as competitor of 125I-fVIII (1 nM) binding to LRP-coated wells, LIGAND fit

T1 sequence (Q07954 20-4544, form in doubt): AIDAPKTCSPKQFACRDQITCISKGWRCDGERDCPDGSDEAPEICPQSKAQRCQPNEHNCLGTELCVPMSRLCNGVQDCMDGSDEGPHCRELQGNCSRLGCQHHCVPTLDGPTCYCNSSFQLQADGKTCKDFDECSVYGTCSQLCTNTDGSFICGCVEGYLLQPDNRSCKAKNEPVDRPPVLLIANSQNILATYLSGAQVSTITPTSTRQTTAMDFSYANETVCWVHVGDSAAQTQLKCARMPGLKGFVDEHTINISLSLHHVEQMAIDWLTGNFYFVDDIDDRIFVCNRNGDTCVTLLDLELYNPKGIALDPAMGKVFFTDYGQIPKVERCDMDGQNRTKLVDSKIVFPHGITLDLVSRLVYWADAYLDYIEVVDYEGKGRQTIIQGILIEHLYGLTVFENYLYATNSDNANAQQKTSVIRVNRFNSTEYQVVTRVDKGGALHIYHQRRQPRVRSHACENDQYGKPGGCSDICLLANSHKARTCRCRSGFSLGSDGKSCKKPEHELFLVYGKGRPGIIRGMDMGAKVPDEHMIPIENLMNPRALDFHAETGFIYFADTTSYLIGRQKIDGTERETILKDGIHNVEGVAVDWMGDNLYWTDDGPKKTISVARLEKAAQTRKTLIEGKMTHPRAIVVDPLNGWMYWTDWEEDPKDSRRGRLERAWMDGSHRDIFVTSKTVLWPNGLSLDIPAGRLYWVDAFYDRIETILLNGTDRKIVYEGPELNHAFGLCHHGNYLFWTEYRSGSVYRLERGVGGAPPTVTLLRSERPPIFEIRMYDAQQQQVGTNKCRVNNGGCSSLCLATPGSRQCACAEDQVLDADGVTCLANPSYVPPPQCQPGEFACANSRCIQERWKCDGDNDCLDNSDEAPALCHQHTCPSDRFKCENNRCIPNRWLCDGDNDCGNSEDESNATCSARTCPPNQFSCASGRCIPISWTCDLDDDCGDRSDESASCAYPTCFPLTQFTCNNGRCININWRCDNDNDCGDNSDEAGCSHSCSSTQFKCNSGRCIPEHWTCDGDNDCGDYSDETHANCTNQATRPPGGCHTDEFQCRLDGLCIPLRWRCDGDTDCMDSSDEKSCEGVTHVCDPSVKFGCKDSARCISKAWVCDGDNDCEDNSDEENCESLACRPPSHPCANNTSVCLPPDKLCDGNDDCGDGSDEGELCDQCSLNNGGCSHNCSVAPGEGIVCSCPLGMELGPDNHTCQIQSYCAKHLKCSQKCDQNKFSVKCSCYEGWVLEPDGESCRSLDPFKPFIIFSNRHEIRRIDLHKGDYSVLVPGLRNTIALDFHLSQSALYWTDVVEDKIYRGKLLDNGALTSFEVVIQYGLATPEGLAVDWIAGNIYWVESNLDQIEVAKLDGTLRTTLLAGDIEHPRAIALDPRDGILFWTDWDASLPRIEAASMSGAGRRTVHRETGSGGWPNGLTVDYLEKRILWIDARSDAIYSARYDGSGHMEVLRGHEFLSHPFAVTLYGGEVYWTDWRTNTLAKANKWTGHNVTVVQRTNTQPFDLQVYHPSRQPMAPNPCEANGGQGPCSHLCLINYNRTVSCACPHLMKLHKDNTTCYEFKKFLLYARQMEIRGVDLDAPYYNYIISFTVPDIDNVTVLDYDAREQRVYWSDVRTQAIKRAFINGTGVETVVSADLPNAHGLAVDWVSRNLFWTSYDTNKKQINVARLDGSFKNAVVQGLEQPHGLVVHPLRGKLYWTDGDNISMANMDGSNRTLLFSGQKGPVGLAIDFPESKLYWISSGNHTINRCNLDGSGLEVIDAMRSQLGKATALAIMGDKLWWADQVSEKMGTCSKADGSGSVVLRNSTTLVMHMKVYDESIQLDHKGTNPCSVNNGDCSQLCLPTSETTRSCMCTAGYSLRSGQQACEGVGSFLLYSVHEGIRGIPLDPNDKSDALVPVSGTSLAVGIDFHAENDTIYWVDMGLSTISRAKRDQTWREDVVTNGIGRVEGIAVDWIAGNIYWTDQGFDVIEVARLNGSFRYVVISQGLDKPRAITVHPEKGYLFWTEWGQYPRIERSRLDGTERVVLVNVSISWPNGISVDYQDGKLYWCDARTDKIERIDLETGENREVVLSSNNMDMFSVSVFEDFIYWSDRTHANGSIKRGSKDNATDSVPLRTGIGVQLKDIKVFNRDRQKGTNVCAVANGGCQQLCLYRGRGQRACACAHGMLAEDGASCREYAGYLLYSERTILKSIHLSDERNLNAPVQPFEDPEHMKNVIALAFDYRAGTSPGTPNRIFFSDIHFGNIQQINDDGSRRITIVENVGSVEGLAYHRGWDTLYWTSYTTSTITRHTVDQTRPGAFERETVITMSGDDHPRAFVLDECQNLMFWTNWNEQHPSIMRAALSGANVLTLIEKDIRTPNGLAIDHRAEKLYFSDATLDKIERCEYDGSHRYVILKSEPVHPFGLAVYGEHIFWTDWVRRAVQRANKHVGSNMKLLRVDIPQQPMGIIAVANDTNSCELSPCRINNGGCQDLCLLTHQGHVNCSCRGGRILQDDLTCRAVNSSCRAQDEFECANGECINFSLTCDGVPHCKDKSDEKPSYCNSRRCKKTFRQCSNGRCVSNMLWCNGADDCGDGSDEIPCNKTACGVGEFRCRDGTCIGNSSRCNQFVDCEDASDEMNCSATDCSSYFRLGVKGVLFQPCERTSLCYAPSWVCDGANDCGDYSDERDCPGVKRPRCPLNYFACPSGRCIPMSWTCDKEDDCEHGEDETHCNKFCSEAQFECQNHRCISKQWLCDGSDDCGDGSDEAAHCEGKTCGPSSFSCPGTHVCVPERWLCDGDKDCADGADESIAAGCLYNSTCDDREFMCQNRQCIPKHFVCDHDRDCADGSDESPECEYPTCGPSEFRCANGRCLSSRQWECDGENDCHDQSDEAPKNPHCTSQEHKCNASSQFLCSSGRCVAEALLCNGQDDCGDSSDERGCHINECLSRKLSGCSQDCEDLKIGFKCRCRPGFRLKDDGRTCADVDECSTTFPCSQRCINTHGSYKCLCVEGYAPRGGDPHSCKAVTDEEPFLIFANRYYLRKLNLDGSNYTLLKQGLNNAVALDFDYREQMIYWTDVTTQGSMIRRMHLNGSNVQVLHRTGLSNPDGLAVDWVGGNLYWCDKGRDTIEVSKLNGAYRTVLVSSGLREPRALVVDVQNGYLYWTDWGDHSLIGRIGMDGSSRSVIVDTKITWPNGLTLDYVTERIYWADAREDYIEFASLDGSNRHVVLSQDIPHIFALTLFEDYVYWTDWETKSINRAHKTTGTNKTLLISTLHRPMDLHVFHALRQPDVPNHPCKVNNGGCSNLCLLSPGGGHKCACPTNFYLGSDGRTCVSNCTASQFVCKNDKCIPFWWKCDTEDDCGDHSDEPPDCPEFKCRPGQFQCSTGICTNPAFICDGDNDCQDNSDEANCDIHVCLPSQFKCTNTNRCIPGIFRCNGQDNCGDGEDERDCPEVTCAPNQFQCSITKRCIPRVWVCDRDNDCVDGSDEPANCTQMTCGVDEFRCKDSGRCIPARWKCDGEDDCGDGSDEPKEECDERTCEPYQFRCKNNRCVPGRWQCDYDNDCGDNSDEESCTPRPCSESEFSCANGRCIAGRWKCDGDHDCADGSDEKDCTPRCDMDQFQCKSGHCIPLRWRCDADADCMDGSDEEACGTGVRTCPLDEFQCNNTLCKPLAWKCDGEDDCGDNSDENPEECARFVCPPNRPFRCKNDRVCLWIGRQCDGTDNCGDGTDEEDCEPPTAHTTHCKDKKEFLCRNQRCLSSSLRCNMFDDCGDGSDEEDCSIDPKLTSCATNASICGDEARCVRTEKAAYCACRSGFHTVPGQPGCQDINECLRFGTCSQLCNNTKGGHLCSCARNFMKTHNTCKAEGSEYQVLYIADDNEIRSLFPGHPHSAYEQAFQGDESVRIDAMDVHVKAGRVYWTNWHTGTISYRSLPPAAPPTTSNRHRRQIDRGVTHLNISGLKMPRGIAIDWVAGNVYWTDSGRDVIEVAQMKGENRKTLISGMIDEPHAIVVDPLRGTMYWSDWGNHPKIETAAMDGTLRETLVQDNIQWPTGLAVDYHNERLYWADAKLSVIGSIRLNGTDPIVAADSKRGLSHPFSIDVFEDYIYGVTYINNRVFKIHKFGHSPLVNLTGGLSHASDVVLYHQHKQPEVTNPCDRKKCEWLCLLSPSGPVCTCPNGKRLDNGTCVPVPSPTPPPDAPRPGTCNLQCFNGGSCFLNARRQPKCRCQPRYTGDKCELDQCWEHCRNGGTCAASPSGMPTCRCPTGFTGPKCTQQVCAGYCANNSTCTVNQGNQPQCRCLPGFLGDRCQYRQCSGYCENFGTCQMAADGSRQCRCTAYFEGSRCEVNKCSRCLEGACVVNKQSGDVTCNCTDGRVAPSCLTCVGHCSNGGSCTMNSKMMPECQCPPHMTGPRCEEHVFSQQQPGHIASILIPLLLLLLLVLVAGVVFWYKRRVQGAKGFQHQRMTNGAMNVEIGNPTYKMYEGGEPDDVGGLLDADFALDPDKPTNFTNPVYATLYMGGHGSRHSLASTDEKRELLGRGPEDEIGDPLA

inhibition of degradation of 125I-fVIII/vWf complex by MEF cells by a 1000-fold excess of A2, after 4 hours [1]: > 60%
inhibition of internalization of 125I-fVIII/vWf complex by MEF cells by a 1000-fold excess of A2, after 4 hours [1]: > 70%
Kd [2]: 130 nM
Ki [3]: 132 nM
B1: A2 subunit (A2 domain) of factor VIII, isolated from thrombin-activated fVIII (other)
chain: SVAKKHPKTWVHYIAAEEEDWDYAPLVLAPDDRSYKSQYLNNGPQRIGRKYKKVRFMAYTDETFKTREAIQHESGILGPLLYGEVGDTLLIIFKNQASRPYNIYPHGITDVRPLYSRRLPKGVKHLKDFPILPGEIFKYKWTVTVEDGPTKSDPRCLTRYYSSFVNMERDLASGLIGPLLICYKESVDQRGNQIMSDKRNVILFSVFDENRSWYLTENIQRFLPNPAGVQLEDPEFQASNIMHSINGYVFDSLQLSVCLHEVAYWYILSIGAQTDFLSVFFSGYTFKHKMVYEDTLTLFPFSGETVFMSMENPGLWILGCHNSDFRNRGMTALLKVSSCDKNTGDYYEDSYEDISAYLLSKNNAIEPR
modifications: 125I-labelled where used as tracer
notes: Protein was made from plasma-derived fVIII

IC50 (read off the curve) [4]: ~1000 nM
B2: synthetic peptide of fVIII A2 domain residues 484-509 (peptide)
peptide: RPLYSRRLPKGVKHLKDFPILPGEIF

Ki [5]: 120 nM
B3: heavy chain (HCh) of factor VIII (other)
chain: ATRRYYLGAVELSWDYMQSDLGELPVDARFPPRVPKSFPFNTSVVYKKTLFVEFTDHLFNIAKPRPPWMGLLGPTIQAEVYDTVVITLKNMASHPVSLHAVGVSYWKASEGAEYDDQTSQREKEDDKVFPGGSHTYVWQVLKENGPMASDPLCLTYSYLSHVDLVKDLNSGLIGALLVCREGSLAKEKTQTLHKFILLFAVFDEGKSWHSETKNSLMQDRDAASARAWPKMHTVNGYVNRSLPGLIGCHRKSVYWHVIGMGTTPEVHSIFLEGHTFLVRNHRQASLEISPITFLTAQTLLMDLGQFLLFCHISSHQHDGMEAYVKVDSCPEEPQLRMKNNEEAEDYDDDLTDSEMDVVRFDDDNSPSFIQIRSVAKKHPKTWVHYIAAEEEDWDYAPLVLAPDDRSYKSQYLNNGPQRIGRKYKKVRFMAYTDETFKTREAIQHESGILGPLLYGEVGDTLLIIFKNQASRPYNIYPHGITDVRPLYSRRLPKGVKHLKDFPILPGEIFKYKWTVTVEDGPTKSDPRCLTRYYSSFVNMERDLASGLIGPLLICYKESVDQRGNQIMSDKRNVILFSVFDENRSWYLTENIQRFLPNPAGVQLEDPEFQASNIMHSINGYVFDSLQLSVCLHEVAYWYILSIGAQTDFLSVFFSGYTFKHKMVYEDTLTLFPFSGETVFMSMENPGLWILGCHNSDFRNRGMTALLKVSSCDKNTGDYYEDSYEDISAYLLSKNNAIEPRSFSQNSRHRSTRQKQFNATTIPENDIEKTDPWFAHRTPMPKIQNVSSSDLLMLLRQSPTPHGLSLSDLQEAKYETFSDDPSPGAIDSNNSLSEMTHFRPQLHHSGDMVFTPESGLQLRLNEKLGTTAATELKKLDFKVSSTSNNLISTIPSDNLAAGTDNTSSLGPPSMPVHYDSQLDTTLFGKKSSPLTESGGPLSLSEENNDSKLLESGLMNSQESSWGKNVSSTESGRLFKGKRAHGPALLTKDNALFKVSISLLKTNKTSNNSATNRKTHIDGPSLLIENSPSVWQNILESDTEFKKVTPLIHDRMLMDKNATALRLNHMSNKTTSSKNMEMVQQKKEGPIPPDAQNPDMSFFKMLFLPESARWIQRTHGKNSLNSGQGPSPKQLVSLGPEKSVEGQNFLSEKNKVVVGKGEFTKDVGLKEMVFPSSRNLFLTNLDNLHENNTHNQEKKIQEEIEKKETLIQENVVLPQIHTVTGTKNFMKNLFLLSTRQNVEGSYDGAYAPVLQDFRSLNDSTNRTKKHTAHFSKKGEEENLEGLGNQTKQIVEKYACTTRISPNTSQQNFVTQRSKRALKQFRLPLEETELEKRIIVDDTSTQWSKNMKHLTPSTLTQIDYNEKEKGAITQSPLSDCLTRSHSIPQANRSPLPIAKVSSFPSIRPIYLTRVLFQDNSSHLPAASYRKKDSGVQESSHFLQGAKKNNLSLAILTLEMTGDQREVGSLGTSATNSVTYKKVENTVLPKPDLPKTSGKVELLPKVHIYQKDLFPTETSNGSPGHLDLVEGSLLQGTEGAIKWNEANRPGKVPFLRVATESSAKTPSKLLDPLAWDNHYGTQIPKEEWKSQEKSPEKTAFKKKDTILSLNACESNHAIAAINEGQNKPEIEVTWAKQGRTERLCSQNPPVLKRHQR
notes: Prepared from plasma-derived fVIII

IC50 (read off the curve) [6]: ~2 nM
Ki [7]: 2.5 nM
B4: 39 kDa receptor-associated protein (RAP), human, expressed in bacteria (ligand)
chain: YSREKNQPKPSPKRESGEEFRMEKLNQLWEKAQRLHLPPVRLAELHADLKIQERDELAWKKLKLDGLDEDGEKEARLIRNLNVILAKYGLDGKKDARQVTSNSLSGTQEDGLDDPRLEKLWHKAKTSGKFSGEELDKLWREFLHHKEKVHEYNVLLETLSRTEEIHENVISPSDLSDIKGSVLHSRHTELKEKLRSINQGLDRLRRVSHQGYSTEAEFEEPRVIDLWDLAQSANLTDKELEAFREELKHFEAKIEKHNHYQKQLEIAHEKLRHAESVGDGERVSRSREKHALLEGRTKELGYTVKKHLQDLSGRISRARHNEL
notes: also called alpha2 macroglobulin receptor-associated protein
